Target: T1, B3GNT2 (Homo sapiens, UniProt Q9NY97)
T1 construct: The respective ORFs of candidate genes [CD274 (NM_014143), MCL1 (NM_021960), JUNB (NM_002229), and B3GNT2 (NM_006577)] were synthesized; expressed in transfected cells; host or cells: A375 melanoma cells (lentiviral ORF overexpression)
T1 sequence (Q9NY97 1-397): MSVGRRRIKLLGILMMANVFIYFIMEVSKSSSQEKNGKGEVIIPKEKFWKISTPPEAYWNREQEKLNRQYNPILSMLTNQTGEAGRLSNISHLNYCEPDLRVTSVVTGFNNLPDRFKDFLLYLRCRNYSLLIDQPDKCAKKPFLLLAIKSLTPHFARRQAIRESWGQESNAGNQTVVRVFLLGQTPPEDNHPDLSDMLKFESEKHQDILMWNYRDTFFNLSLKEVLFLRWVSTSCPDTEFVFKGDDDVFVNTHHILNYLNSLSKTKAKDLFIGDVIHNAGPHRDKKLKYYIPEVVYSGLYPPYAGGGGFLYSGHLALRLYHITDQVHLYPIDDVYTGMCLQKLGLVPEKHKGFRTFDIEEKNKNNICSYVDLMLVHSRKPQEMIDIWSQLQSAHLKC
Assay: Co-IP of FLAG-tagged B3GNT2 followed by mass spectrometry
Assay type: cell-based
Set-up: C-term IgG / C-term flag: unit not given here
Experimental: Cells were plated in 10-cm cell culture dishes and grown to 60-80% confluency. For each condition, two biological replicates were harvested for co-IP. Cells were washed with PBS and 4 mL of lysis buffer (20 mM HEPES, 1% Triton X-100, 150 mM NaCl, 1 mM EDTA, and 10% glycerol) containing protease inhibitor cocktail was added. Cells were scraped and lysate was incubated at 4° C. under rotary agitation for 1 h. Lysate was centrifuged at 14,000×g for 10 min at 4° C. Supernatant was transferred to a new tube and an aliquot was taken as the input. […] For Western blots, 10 μg/mL Chicken Anti-FLAG (Aves labs ET-DY100) and IgY control (R&D Systems AB-101-C) antibodies were biotinylated (Thermo Fisher Scientific 90407) and added to the respective conditions. Lysates with antibodies were incubated at 4° C. under rotary agitation overnight. For each mL of lysate, 50 μL of Pierce Protein A/G Magnetic Beads (Mass spectrometry; Thermo Fisher Scientific 88803) or Pierce Streptavidin Magnetic Beads (Western blot; Thermo Fisher Scientific 88817) was washed twice with lysis buffer. Lysates with antibodies were added to the beads and incubated at 4° C. under rotary agitation for 4 h. Beads were washed with lysis buffer 3 times and resuspended in lysis buffer for storage. […] This solution was subjected to solid phase extraction to concentrate the peptides and remove unwanted reagents followed by injection onto a Shimadzu HPLC with fraction collector. Eight fractions were collected and after concentration were injected on a Waters NanoAcquity HPLC equipped with a self-packed Aeris 3 μm C18 analytical column 0.075 mm by 20 cm, (Phenomenex). Peptides were eluted using standard reverse-phase gradients. The effluent from the column was analyzed using a Thermo Orbitrap Elite mass spectrometer (nanospray configuration) operated in a data dependent manner for 54 minutes. […] Scaffold Q+S (Proteome Software) was used to provide consensus reports for the identified proteins.

[1] = Co-IP followed by mass spectrometry of B3GNT2, C-term tag, FLAG pull-down
[2] = Co-IP followed by mass spectrometry of B3GNT2, C-term tag, IgG pull-down
[3] = Co-IP followed by mass spectrometry of B3GNT2, N-term tag, FLAG pull-down
[4] = Co-IP followed by mass spectrometry of B3GNT2, N-term tag, IgG pull-down
[5] = Co-IP with FLAG antibody, C-terminally FLAG-tagged B3GNT2, mass spectrometry count, unit not given
[6] = Co-IP with FLAG antibody, N-terminally FLAG-tagged B3GNT2, mass spectrometry count, unit not given
[7] = Co-IP with IgG control antibody, C-terminally FLAG-tagged B3GNT2, mass spectrometry count, unit not given
[8] = Co-IP with IgG control antibody, N-terminally FLAG-tagged B3GNT2, mass spectrometry count, unit not given

Substance	C-term flag [1]	C-term IgG [2]	N-term FLAG [3]	N-term IgG [4]	C-term flag [5]	N-term FLAG [6]	C-term IgG [7]	N-term IgG [8]
PSMA7	2	0	4	0				
EPRS					4	3	0	0
RPL28	16	3	8	3				
CFL1	6	3	5	3				
SRSF3	7	3	6	4				
HSPB1	4	0	3	4				
LAMB1					2	0	0	0
PSMD4					0	2	0	0
HERC2					3	0	0	0
PXN					0	2	0	0
SYNM	5	2	5	5				
LCN1	11	6	11	9				
TCP1	3	0	0	0				
HNRNPA2B1	8	9	7	4				
ERLIN2					9	8	0	0
PRRC2C	15	6	6	11				
FKBP10					16	0	0	0
TRIM21	0	0	6	0				
HUWE1	0	0	3	0				
ITGB3	3	0	3	0				
PRRC2A	5	3	2	3				

Substance	C-term flag [1]	C-term IgG [2]	N-term FLAG [3]	N-term IgG [4]	C-term flag [5]	N-term FLAG [6]	C-term IgG [7]	N-term IgG [8]
TUBB					117	164	10	10
TPI1	2	0	3	2				
PSMA1					0	2	0	0
GCN1					4	14	0	0
TUBA1B					0	76	0	0
HSP90AB1					11	10	2	0
PPIB					2	0	0	0
DHX9	5	0	0	0				
NPM1					8	0	0	0
LGALS7B	4	3	7	4				
SRSF1	9	3	4	5				
FLG	22	15	29	20				
PKM	3	2	3	2				
EIF4A1					6	2	0	0
SEL1L					5	3	0	0
PRBP1	9	6	6	7				
CEP170					2	0	0	0
CALU					13	10	0	0
AIFM1					5	5	0	0
ABCF1					2	0	0	0
EMD	2	2	2	0				
